Experimental data from PMC2918688 (Molecular immunology, 2010).
Values belong to the binder of their own block, whether it stands above or below them.

B2: purified cJun (natural protein, human, UniProt P05412 1-331, looked up)
chain: MTAKMETTFYDDALNASFLPSESGPYGYSNPKILKQSMTLNLADPVGSLKPHLRAKNSDLLTSPDVGLLKLASPELERLIIQSSNGHITTTPTPTQFLCPKNVTDEQEGFAEGFVRALAELHSQNTLPSVTSAAQPVNGAGMVAPAVASVAGGSGSGGFSASLHSEPPVYANLSNFNPGALSSGGGAPSYGAAGLAFPAQPQQQQQPPHHLPQQMPVQHPRLQALKEEPQTVPEMPGETPPLSPIDMESQERIKAERKRMRNRIAASKCRKRKLERIARLEEKVKTLKAQNSELASTANMLREQVAQLKQKVMNHVNSGCQLMLTQQLQTF

Tests used:
Test in all cases: pull-down
purified cJun = target: B2
GST-NFATc2 (full-length) = target: T1, GST-NFATc2 (full-length) (human, UniProt Q13469-2 1-921)
T1 sequence (looked up): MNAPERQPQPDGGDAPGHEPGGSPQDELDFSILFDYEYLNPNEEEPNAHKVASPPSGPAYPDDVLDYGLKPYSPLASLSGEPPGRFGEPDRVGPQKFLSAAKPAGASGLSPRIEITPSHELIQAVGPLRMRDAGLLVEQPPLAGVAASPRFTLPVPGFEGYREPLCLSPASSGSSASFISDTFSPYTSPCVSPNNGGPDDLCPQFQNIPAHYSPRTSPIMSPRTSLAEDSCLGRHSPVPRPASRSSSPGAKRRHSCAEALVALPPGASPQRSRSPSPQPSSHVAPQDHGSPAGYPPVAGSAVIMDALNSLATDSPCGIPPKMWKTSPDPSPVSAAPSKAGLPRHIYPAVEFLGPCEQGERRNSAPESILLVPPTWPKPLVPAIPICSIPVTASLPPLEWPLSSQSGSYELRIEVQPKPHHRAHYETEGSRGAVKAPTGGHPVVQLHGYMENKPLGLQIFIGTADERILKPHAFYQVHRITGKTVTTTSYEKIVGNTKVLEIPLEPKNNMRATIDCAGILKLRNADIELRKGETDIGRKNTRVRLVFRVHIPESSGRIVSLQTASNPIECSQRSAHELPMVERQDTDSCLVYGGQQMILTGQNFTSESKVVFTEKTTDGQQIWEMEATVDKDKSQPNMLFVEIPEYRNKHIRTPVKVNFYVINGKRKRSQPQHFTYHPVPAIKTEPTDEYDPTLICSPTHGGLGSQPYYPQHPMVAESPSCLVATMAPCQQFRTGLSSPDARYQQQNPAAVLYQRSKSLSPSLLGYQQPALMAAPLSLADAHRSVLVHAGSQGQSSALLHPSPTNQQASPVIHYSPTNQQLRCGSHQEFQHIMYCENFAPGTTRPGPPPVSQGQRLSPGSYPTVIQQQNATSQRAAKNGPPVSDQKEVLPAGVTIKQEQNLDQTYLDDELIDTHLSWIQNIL

HA-NFATc2 = target: T2, HA-NFATc2 (human, UniProt Q13469-2 1-921)
T2 sequence (looked up): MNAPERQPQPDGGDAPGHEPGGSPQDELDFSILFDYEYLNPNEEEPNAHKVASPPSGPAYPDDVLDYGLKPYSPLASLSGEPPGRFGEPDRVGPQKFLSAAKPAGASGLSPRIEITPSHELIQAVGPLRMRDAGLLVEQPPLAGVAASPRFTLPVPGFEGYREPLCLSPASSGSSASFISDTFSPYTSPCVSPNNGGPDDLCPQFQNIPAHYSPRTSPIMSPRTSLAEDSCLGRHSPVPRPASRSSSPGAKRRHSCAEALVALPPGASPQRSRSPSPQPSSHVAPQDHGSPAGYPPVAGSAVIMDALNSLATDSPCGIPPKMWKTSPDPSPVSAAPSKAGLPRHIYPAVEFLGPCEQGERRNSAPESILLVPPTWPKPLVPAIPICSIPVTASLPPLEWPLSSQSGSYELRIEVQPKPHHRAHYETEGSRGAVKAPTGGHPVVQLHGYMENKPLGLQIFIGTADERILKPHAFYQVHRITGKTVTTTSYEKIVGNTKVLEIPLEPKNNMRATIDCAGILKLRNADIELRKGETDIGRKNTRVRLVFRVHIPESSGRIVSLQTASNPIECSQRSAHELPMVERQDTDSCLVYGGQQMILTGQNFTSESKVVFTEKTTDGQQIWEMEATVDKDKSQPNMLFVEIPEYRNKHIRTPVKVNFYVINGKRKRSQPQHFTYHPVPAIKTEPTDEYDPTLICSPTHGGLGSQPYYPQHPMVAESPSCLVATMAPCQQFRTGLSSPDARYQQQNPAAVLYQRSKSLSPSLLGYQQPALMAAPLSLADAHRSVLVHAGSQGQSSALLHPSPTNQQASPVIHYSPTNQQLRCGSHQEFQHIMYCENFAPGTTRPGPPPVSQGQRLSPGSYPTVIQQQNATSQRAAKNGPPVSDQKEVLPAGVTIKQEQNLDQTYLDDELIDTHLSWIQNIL

binding result (purified cJun): binds
B1: GST-NFATc2(688–921) (domain or fragment, human, UniProt Q13469-2 688-921, looked up)
chain: EYDPTLICSPTHGGLGSQPYYPQHPMVAESPSCLVATMAPCQQFRTGLSSPDARYQQQNPAAVLYQRSKSLSPSLLGYQQPALMAAPLSLADAHRSVLVHAGSQGQSSALLHPSPTNQQASPVIHYSPTNQQLRCGSHQEFQHIMYCENFAPGTTRPGPPPVSQGQRLSPGSYPTVIQQQNATSQRAAKNGPPVSDQKEVLPAGVTIKQEQNLDQTYLDDELIDTHLSWIQNIL

Binder: B2
binding result (GST-NFATc2 (full-length)): binds

B3: GST-cJun(1–317) (domain or fragment, human, UniProt P05412 1-317, looked up)
chain: MTAKMETTFYDDALNASFLPSESGPYGYSNPKILKQSMTLNLADPVGSLKPHLRAKNSDLLTSPDVGLLKLASPELERLIIQSSNGHITTTPTPTQFLCPKNVTDEQEGFAEGFVRALAELHSQNTLPSVTSAAQPVNGAGMVAPAVASVAGGSGSGGFSASLHSEPPVYANLSNFNPGALSSGGGAPSYGAAGLAFPAQPQQQQQPPHHLPQQMPVQHPRLQALKEEPQTVPEMPGETPPLSPIDMESQERIKAERKRMRNRIAASKCRKRKLERIARLEEKVKTLKAQNSELASTANMLREQVAQLKQKVMNHVN
binding result (HA-NFATc2): binds
